Source: article PMC125294 (Arthritis Research, 2002)
Ends that are not written are not given here.

Key:
[1] = system: polyclonal lymph node cell population; details: ref [9] (also Fig. 3); cited from earlier work
[2] = system: MMP peptide-specific T cells; test: Delayed-type hypersensitivity; details: control ovalbumin peptide
[3] = molecular target: T1, Lewis rat MHC class II molecule, RT1.B^L (rat (Lewis), UniProt P20037 24-256; P29826 28-263); test: competitive MHC class II-peptide binding assay
T1 sequence (looked up) 1: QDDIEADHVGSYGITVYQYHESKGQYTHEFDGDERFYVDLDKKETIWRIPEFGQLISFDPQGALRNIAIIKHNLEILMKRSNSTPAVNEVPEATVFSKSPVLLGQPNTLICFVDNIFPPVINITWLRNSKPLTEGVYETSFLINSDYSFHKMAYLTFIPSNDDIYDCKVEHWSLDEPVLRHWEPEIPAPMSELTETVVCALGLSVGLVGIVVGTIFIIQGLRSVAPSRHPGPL
T1 sequence (looked up) 2: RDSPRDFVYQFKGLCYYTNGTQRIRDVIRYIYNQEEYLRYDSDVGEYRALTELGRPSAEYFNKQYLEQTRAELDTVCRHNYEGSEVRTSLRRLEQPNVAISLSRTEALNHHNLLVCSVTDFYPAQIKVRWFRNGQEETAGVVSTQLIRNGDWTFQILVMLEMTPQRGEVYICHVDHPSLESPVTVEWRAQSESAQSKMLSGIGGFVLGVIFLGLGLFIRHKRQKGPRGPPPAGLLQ

| Molecule | IC50 [3] | also measured |
| --- | --- | --- |
| SNTFGLQLE [hsp65_178–186] |  | proliferative response to mycobacterial hsp65 178–186 [1]: very low |
| ISQAVHAAHAEINEAGR [OVA323–339] |  | DTH reaction (in words), control peptide [2]: no DTH reaction was observed |
| FLYFFSGSSQLEFDP-NH2 [Rat MMP-3_(444-458) peptide] | ≤ 8 µM |  |
| VKEGHSPPDDVDIVI-NH2 [Human MMP-16_(539-553) peptide] | 64 to 128 µM |  |
| SAFWPSLPSGLDAAY-NH2 [Rat MMP-10_(329-343) peptide] | 128 to 256 µM |  |
